Test results: patent US20180037644A1 (Pfizer, published 2018)
Positions count from the first letter of the chain named.

T1: cynomolgus monkey IL-33 (cys mut) (cynomolgus monkey)
T1 chain: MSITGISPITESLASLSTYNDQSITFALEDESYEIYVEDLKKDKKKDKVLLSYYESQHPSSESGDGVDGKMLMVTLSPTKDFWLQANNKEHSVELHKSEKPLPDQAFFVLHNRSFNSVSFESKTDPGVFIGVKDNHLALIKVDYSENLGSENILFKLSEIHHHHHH

T2: human IL-33 (mm2) (human, UniProt O95760 112-270)
T2 chain: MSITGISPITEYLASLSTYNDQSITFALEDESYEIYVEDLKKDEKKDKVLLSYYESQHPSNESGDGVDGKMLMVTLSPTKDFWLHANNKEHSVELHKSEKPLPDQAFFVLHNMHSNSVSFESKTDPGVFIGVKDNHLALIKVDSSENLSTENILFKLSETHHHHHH

B1: IL33-188 (antibody, human IgG1, kappa, V domains shown)
VH: EVQLVESGGGLVQPGGSLRLSCAASGFTFSSYWMYWVRQAPGKGLEWVAAITPNAGETYYPESVKGRFTISRDNAKNSLYLQMNSLRAEDTAVYYCARGHYYYTSYSLGYWGQGTLVTVSS
VL: DIQMTQSPSSLSASVGDRVTITCKASQNINKHLDWYQQKPGKAPKLLIYFTNNLQTGVPSRFSGSGSGTDFTLTISSLQPEDFATYYCFQYNQGWTFGGGTKVEIKR
B2: IL33-57 (antibody, human IgG1, kappa, V domains shown)
VH: B1 VH with A50S, A55G, E57N, E62D, S105D
VL: B1 VL with Q93N
B3: IL33-74 (antibody, human IgG1, kappa, V domains shown)
VH: B1 VH with A50S, A55G, E57N, E62D
VL: B1 VL with K31D, Q93N
B4: IL33-62 (antibody, human IgG1, kappa, V domains shown)
VH: B1 VH with A50S, A55G, E57D, E62D, S105D
VL: B1 VL with Q93N
B5: IL33-61 (antibody, human IgG1, kappa, V domains shown)
VH: B1 VH with A50S, A55G, E62D, S105D
VL: B1 VL with Q93N
B6: IL33-75 (antibody, human IgG1, kappa, V domains shown)
VH: B1 VH with A50S, A55G, E57N, E62D
VL: B1 VL with N30D, Q93N
B7: IL33-58 (antibody, human IgG1, kappa, V domains shown)
VH: B1 VH with A50S, N54L, A55G, E57N, E62D
VL: B1 VL with Q93N
B8: IL33-81 (antibody, human IgG1, kappa, V domains shown)
VH: B1 VH with A50S, A55G, E57N, E62D
VL: B1 VL with T56E, Q93N
B9: IL33-80 (antibody, human IgG1, kappa, V domains shown)
VH: B1 VH with A50S, A55G, E57N, E62D
VL: B1 VL with T56D, Q93N
B10: 9B3-563 (antibody, human IgG1, kappa, V domains shown)
VH: EVQLVETGGGLVQPGRSLKLSCVASGFTFSNYWMYWIRQAPGMGLEWVSSINNDGGNTYYLDSVKGRFTISRNNAENTVYLQMNSLRSEDTATYYCAKGHYYYSSYSFAYWGQGTLVTVSS
VL: DIQMTQSPSVLSASVGDRVTLSCKASHNINKHLDWYQQKVGEAPKLLIYFTNNLQTGIPSRFSGSGSGTDYTLTISSLQPEDVATYFCFQYNSGWTFGQGTKVEIKR
B11: 9B3-162 (antibody, human IgG1, kappa, V domains shown)
VH: B10 VH with A109G
VL: B10 VL
B12: 9B3-2A (antibody, human IgG1, kappa, V domains shown)
VH: B10 VH with Y102S, A109G
VL: B10 VL
B13: 9B3-13 (antibody, human IgG1, kappa, V domains shown)
VH: B10 VH with K98R, S104N, Y110H
VL: B10 VL
B14: 9B3-15 (antibody, human IgG1, kappa, V domains shown)
VH: B10 VH with Y102S, Y110N
VL: B10 VL
B15: 9B3-31v2 (antibody, human IgG1, kappa, V domains shown)
VH: B10 VH with Y110F
VL: B10 VL
B16: 9B3-7 (antibody, human IgG1, kappa, V domains shown)
VH: B10 VH with H100R
VL: B10 VL
B17: 9B3-79 (antibody, human IgG1, kappa, V domains shown)
VH: B10 VH with K98R, S104T
VL: B10 VL
B18: 9B3-36 (antibody, human IgG1, kappa, V domains shown)
VH: B10 VH with S104T
VL: B10 VL
B19: 9B3-5 (antibody, human IgG1, kappa, V domains shown)
VH: B10 VH with Y102S, S104T, A109G
VL: B10 VL
B20: 9B3-3 (antibody, human IgG1, kappa, V domains shown)
VH: B10 VH with Y102S, F108I, A109D
VL: B10 VL
B21: 9B3-2B (antibody, human IgG1, kappa, V domains shown)
VH: B10 VH with A97V, Y102S, F108I, A109D
VL: B10 VL
B22: 9B3-1 (antibody, human IgG1, kappa, V domains shown)
VH: B10 VH with F108L, A109G
VL: B10 VL
B23: 7E8H/9B3K (antibody, human IgG1, kappa, V domains shown)
VH: EVQLVETGGGLVQPGRSLKLSCKTSGFTFSSYWMYWIRQAPGKGLEWVSSITPNGGNTYYPDSVKGRFTISRDNAENTIYLQMSSLRSEDTATYFCAKGHYYYTSYSLGYWGQGSLVTVSS
VL: B10 VL
B24: 30A1 chimera (antibody, human IgG1, kappa)
heavy: QVNLLQSGATLVKPGASMKMSCKASGYSFTDYWVSWVKQSHGKSLEWIGEIYPNSGANNFNKEFKDKATLTVDKSTSTAYMELTRLTSEDSAVYYCTRGPYYYSSQIIFAYWGQGTLVTVSSASTKGPSVFPLAPSSKSTSGGTAALGCLVKDYFPEPVTVSWNSGALTSGVHTFPAVLQSSGLYSLSSVVTVPSSSLGTQTYICNVNHKPSNTKVDKKVEPKSCDKTHTCPPCPAPEAAGAPSVFLFPPKPKDTLMISRTPEVTCVVVDVSHEDPEVKFNWYVDGVEVHNAKTKPREEQYNSTYRVVSVLTVLHQDWLNGKEYKCKVSNKALPAPIEKTISKAKGQPREPQVYTLPPSREEMTKNQVSLTCLVKGFYPSDIAVEWESNGQPENNYKTTPPVLDSDGSFFLYSKLTVDKSRWQQGNVFSCSVMHEALHNHYTQKSLSLSPGK
light: IIVMTQSPKSMSISVGDRVTMNCKASQNVGNNIAWYRQKPGQSPELLIYYASNRYTGVPDRFTGGGYGTDFTLTINSVQAEDAAFYYCQRIYNSPPTFGGGTKVELKRTVAAPSVFIFPPSDEQLKSGTASVVCLLNNFYPREAKVQWKVDNALQSGNSQESVTEQDSKDSTYSLSSTLTLSKADYEKHKVYACEVTHQGLSSPVTKSFNRGEC
B25: 7E8 chimera (antibody, human IgG1, kappa, V domains shown)
VH: B23 VH
VL: EIQMTQSPSVLSASVGDRVTLSCKASQNINKHLDWYQQKLGEAPKLLIYFTNNLQTGIPSRFSGSGSGTDCTLTINSLQPGDVATYFCFQYNNGWTFGGGTKLELDR

Target: T1, cynomolgus monkey IL-33 (cys mut)
Assay: cell-based or functional assay

IC50, HEK293 ST2 NFkB cyno IL-33 [nM]	Binder
0.351	B1

Target: T2, human IL-33 (mm2)
Assay: cell-based or functional assay

IC50, HEK293 ST2 NFkB [nM]	IC50, whole blood mm2 [nM]	Binder
0.147	0.017	B1

Target: T2, human IL-33 (mm2)
Assay: cell-based or functional assay
Remark: another data set of the same source

IC50, HEK293 ST2 NFkB [nM]	Binder
0.31	B2
0.174	B3
0.885	B4
0.595	B5
0.156	B6
0.027	B7
0.168	B8
0.161	B9

Target: T2, human IL-33 (mm2)
Assay: BIAcore, IgG captured by anti-human Fc, 125 nM IL-33 (mm2)
Experimental: Binding to human and cynomolgus monkey IL-33 was measured by surface plasmon resonance using a BIAcore T200 instrument. An anti-human Fc antibody was immobilized on a CM5 chip, and anti-IL-33 antibodies were captured.

koff [s⁻¹]	Binder
0.00109	B10
0.000642	B11
0.000437	B12
0.000326	B13
0.000479	B14
0.000706	B15
0.000589	B16
0.000543	B17
0.000289	B18
0.000325	B19
0.000424	B20
0.000506	B21
0.000569	B22
0.000385	B23

Target: T2, human IL-33 (mm2)
Assay: cell-based or functional assay
Remark: another data set of the same source

estimated IC50, HEK293 ST2 NFkB [nM]	Binder
0.177	B10
0.067	B11
0.056	B12
0.175	B13
0.101	B14
0.202	B15
0.069	B16
0.063	B17
0.251	B18
0.106	B19
0.048	B20
0.048	B21
0.039	B22
0.015	B23

Target: T2, human IL-33 (mm2)
Assay: cell-based or functional assay
Remark: another data set of the same source

IC50, HEK293 ST2 NFkB [nM]	Binder
0.27	B24
0.049	B25
